Assay results published in article PMC4608377, “Substrate specificity and transport mechanism of amino-acid transceptor Slimfast from Aedes aegypti” (Nature Communications, 2015).

Columns and labels:
Settings in all cases: high-affinity site of two-site fit (apparent dissociation constant); 98 mM Na+ buffer; holding voltage -50 mV
[1] = substrate: N=C(N)NCCC[C@H](N)C(=O)O; assay: two-electrode voltage clamp, substrate-induced currents in Xenopus oocytes, two-site saturation fit; format: cell-based, Aedes aegypti
[2] = substrate: N[C@@H](Cc1ccccc1)C(=O)O; assay: as above; format: cell-based, Aedes aegypti
[3] = substrate: NCCC[C@H](N)C(=O)O; assay: cells, lysate or membranes

B1: AaSlif (=AaCAT3; Slimfast) (Aedes aegypti) (protein)
chain: MRQGGRIDRFWIALTRKKRNEDDGSDSQLARVLSLLDLTGLGVGSTLGLGVYVLAGSVAYEQAGPAVVISFLVAAVASAIAALCYAEFAARVPKAGSAYIYSYVSIGEFAAFTIGWNLILEYVIGTSSVARGMSGYIDELAGKKISTALKETMGMNVDFLSDYPDFFSFVVVLILAALLAYGVKESTLMNNIFTGVNLCVIAIVLVAGGMNCDPANWMIKPEDIPKGIDAGVGGFAPYGFAGIMAGAAKCFYGFVGFDCIATTGEEAKNPSRNIPLAIVISLIIIFLAYFGISTVLTMALPYYLQNPDAPFPHLFEQLEWHAIKWIVSIGAIFALCTSLLGAMFPLPRVLYAMSTDGIIYKKLRTVHPKTQTPVLATILAGLLAATMAMLFNLQQLIDMMSIGTLLAYTIVAVSVLVLRYEDQTLMQSATVTIPNVFRQVFNVDKLKSPTTLSSSIVKFGICIFALLVCAVCTILVLATDELSAEYPGTLAAISVLGACMVFLIIVTALQPTENTKLTFKVPLVPLLPMLSVFFNLYLMFQLDAGTWVRFAVWIVIGYLIYFTYGIKHSVEGAIAKQAAVNGNGITIVKNGIDNNAFDGSNDKFVSTVPAENPRKSSKNSYSLNNE
notes: full length, 626 residues (1,881-nt ORF); Xenopus codon-optimised (synonymous) in pXOOM, without tag or with C-terminal eGFP (used interchangeably); cRNA expressed in Xenopus laevis oocytes
[1]
  K0.5: 5.2 ± 1.4 µM
[2]
  K0.5: 15.6 ± 8.5 µM
[3]
  K0.5: 13.8 ± 6.2 µM
